According to paper PMC3724652:

Target: rat GluA2igQ with a His8/Myc tag between residues 22 and 23 (rat)
Experiment: AFM imaging of receptor-antibody complexes; receptors isolated by immunoaffinity chromatography from the total cellular pool, incubated with subunit- or tag-specific antibodies, adsorbed to mica at 0.04 nM, imaged in air in tapping mode; volumes of decorated particles and angles between two bound antibodies

rat GluA2igQ with a His8/Myc tag between residues 22 and 23 (receptor)
stoichiometry N: 4
